Patent US20240218054A1 (MABLOC, published 2024)
Positions count from the first letter of the chain named.

B1: ADI-50218 (antibody, V domains shown)
VH: QVQLVQSGAEVKKPGASVKVSCKASGYTFTSYDINWVRQATGQGLEWMGWMNPNSGNTGYAQKFQGRVTMTRNTSISTAYMELSSLRSEDTAVYYCARGLNTVTNSDYWGQGTLVTVSS
VL: DIQLTQSPSSVSASVGDRVTITCRASQGISSWLAWYQQKPGKAPKLLIYAASSLQSGVPSRFSGSGSGTDFTLTISSLQPEDFATYYCQQANSFPWTFGQGTKVDIK
notes: full-length IgG; also called Antibody Number 128
B2: ADI-46737 (antibody, V domains shown)
VH: QVQLVQSGGGVVQPGRSLRLSCAASGFTFSSYAMHWVRQAPGKGLEWVAVISYDGSNKYYADSVKGRFTISRDNSKNTLYLQMNSLRAEDTAVYYCARDGAGDYIWGSYRHKGLHYYYGMDVWGQGTTVTVSS
VL: DIQLTQSPSSLSASVGDRVTITCRASQGIRNDLGWYQQKPGKAPKRLIYAASSLQSGVPSRFSGSGSGTEFTLTISSLQPEDFATYYCLQHNSYPLTFGGGTKVEIK
notes: full-length IgG; also called Antibody Number 140
B3: ADI-42817 (antibody, V domains shown)
VH: QVTLKESGPTLVKPTQTLTLTCTFSGFSLSTSGVGVGWTRQPPGKALEWLALIYWDDDKRYSPSLKSRLTITKDTSKNQVVLTMTKMDPVDTATYYCAHRHIAARLYRDDDVFDVWGQGTMVTVSS
VL: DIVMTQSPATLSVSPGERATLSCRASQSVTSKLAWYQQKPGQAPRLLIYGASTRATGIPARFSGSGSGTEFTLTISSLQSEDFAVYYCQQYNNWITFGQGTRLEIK
notes: full-length IgG
B4: ADI-48890 (antibody, V domains shown)
VH: EVQLVESGGGLVQPGGSLRLSCAASGFTFSDHYMDWVRQAPGKGLEWVGRARNRANSYTTEYAASVKGRFAASRDDSKNSLYLQMNSLKTEDTAVYYCARVRGSYWDYWGQGTLVTVSS
VL: QSALTQPPSASGSPGQSVTISCTGTSSDVGGYNYVSWYQQHPGKAPKLMIYEVSKRPSGVPDRFSGSKSGNTASLTVSGLQAEDEADYYCSSFAGSNNLYVFGTGTKVTVL
notes: full-length IgG
B5: ADI-45123 (antibody, V domains shown)
VH: EVQLLESGGGLVQPGGSLRLSCAASGFIFSNYWMSWVRQAPGKGLEWVANIKPDGSEKYYVESVRGRFTISRDNAKNSLYLQMNSLRAEDTAVFYCARDGGTVSDGLDVWGQGTTVTVSS
VL: DIRVTQSPSSLSASVGDRVTISCRASESISIYLNWYQQKPGKAPNLLIYAASSLQRGVPSRFSGSGSGTDFTLTITSLQAEDFATYYCQQTFSIWTFGQGTKVEIK
notes: full-length IgG
B6: ADI-48950 (antibody, V domains shown)
VH: EVQLVESGGGVVQPGRSLRLSCAVSGFTFSTSPLHWVRQAPGKGLEWVAVSSFVATDKYYADSVKGRFTVSRDNSKNTLYLQMNSLRPEDTAVYYCARGFGELPGFDIWGQGTMVTVSS
VL: SYVLTQPPSASGSPGQSVTISCTGTSSDFGGYNYVSWYQQHPGKAPKLMVYEVAKRPSGVPDRFSGSKSGNTASLTVSGLQAEDEADYYCSSYAGSNNFVVFGGGTKLTVL
notes: full-length IgG; also called Antibody Number 142
B7: ADI-42124 (antibody, V domains shown)
VH: EVQLLESGGGLVQPGGSLRLSCAASGFTFSSYAMSWVRQAPGKGLELVSAISSSGGSTYYADSVKGRFTISRDNSKNTLYLQMNSLRAEDTALYYCAKDLFYDFWTGITIDYWGQGTLVTVSS
VL: QPVLTQPRSVSGSPGQSVTISCTGTSSDVGGYNYVSWYQQHPGKAPKLMIYDVSKRPSGVPDRFSGSKSGNTASLTISGLQAEDEADYYCCSYAGSYTFVLFGGGTKLTVL
notes: full-length IgG
B8: ADI-45151 (antibody, V domains shown)
VH: EVQLLESGGGVVQPGKSLRLSCAASGFSFGDYGMHWVRQTPDKGLEWVAVILFDGSKKFYADSVRGRFTISRDNSKNNLYLQMSSLRPEDTAVYYCAKFPLRDGGSGEGFDYWGQGTLVTVSS
VL: DIVMTQTPLSSPVTLGQPASISCRSSQSLVHSDGNTYLSWLQQRPGQPPRFLIYKISNRFSGVPDRFSGGGAGTDFTLKISRVEAEDVGVYYCMQASQFPLTFGGGTKVEIK
notes: full-length IgG; also called Antibody Number 149
B9: ADI-49194 (antibody, V domains shown)
VH: EVQLVESGGAVVQPGRSLRLSCAASGFTFSSYGMHWVRQAPGKGLESVAVIWYDGSNKNYADSVKGRFTISRDNSKNTLFLQMNSLRAEDSAMYYCAKTYDSRAYYYLDYWGQGTLVTVSS
VL: ETTLTQSPSTLSTSVGDRVTITCRASQSISSWLAWYQQKPGKAPKLLIYRASSLETEVPSRFSGSGSGTDFTLTISRLQPDDFATYFCQQYNRYPYTFGQGTKLEIK
notes: full-length IgG
B10: ADI-42186 (antibody, V domains shown)
VH: QVQLQQSGPGLVKPSQTLSLTCAISGDSVSTNSAAWNWIRQSPSRGLEWLGRTYYRSKWYNDYALSVKSRITIKPDTSKNQFSLQLNSVTPEDTAVYYCAREGAGYYDSSGYYPLSYDAFDIWGRGTMVTVSS
VL: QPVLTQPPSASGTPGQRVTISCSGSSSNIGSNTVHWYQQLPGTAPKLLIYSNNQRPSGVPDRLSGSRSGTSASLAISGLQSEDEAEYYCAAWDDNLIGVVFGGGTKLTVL
notes: full-length IgG; also called Antibody Number 130
B11: ADI-48900 (antibody, V domains shown)
VH: EVQLQESGPGLVKPSGTLSLTCAVSGGSISSSDWWSWVRQPPGKGLEWIGEIYHSGSTSYNPSVKSRVSISVDKSKNQFSLQLSSVTAADTAIYYCARVNPPQYSSGWYSVYWGQGTLVTVSS
VL: QSVVTQPPSVSAAPGQKVTISCSGSSSNIGNNYVSWYQQLSETAPKLLIYDNNKRPSGIPNRFSGSKSGTSATLGITGLQTGDEADYYCGTWDNSLGAVVFGGGTKVTVL
notes: full-length IgG; also called Antibody Number 13
B12: ADI-42114 (antibody, V domains shown)
VH: EVQLLESGGGLVKPGGSLRLSCAASGFTFSSYSMNWVRQAPGKGLEWVSSISSSSSYIYYADSVKGRFTISRDNAKNSLYLQMNSLRAEDTAVYYCARDSWGPFDYWGQGTLVTVSS
VL: B11 VL with V4L, S41P, E42G, N61D, N94S, G97S, V99K, V107L
notes: full-length IgG; also called Antibody Number 143
B13: ADI-50539 (antibody, V domains shown)
VH: EVQLVESGPGLVKPSGTLSLTCAVSGGSISSSNWWSWVRQPPGKGLEWIGEIYHSGSTNYNPSLKSRVTISVDKSKNQFSLKLSSVTAADTAVYYCARARWEDGNYYYGMDVWGQGTTVTVSS
VL: B11 VL with S2P, V4L, S41P, E42G, N61D, N94S, G97S
notes: full-length IgG; also called Antibody Number 134
B14: ADI-42786 (antibody, V domains shown)
VH: EVQLVESGPGLVKPSGTLSLTCAVSGGSISSSYWWSWVRQSPGKGLEWIGEVYHSGSTHYNPSLKSRVTISVDKSKNQFSLKLTSVTAADTAVYYCARDGEGHYYRSGDNWFDRWGQGTLVTVSS
VL: B11 VL with V4L, N31S, L40F, S41P, E42G, N53S, N61D, K67M, N94S, G97S
notes: full-length IgG; also called Antibody Number 15
B15: ADI-50533 (antibody, V domains shown)
VH: QVQLQESGPGLVKPSGTLSLTCAVSGGSISSSNWWSWVRQPPGKGLEWIGEIYHSGSTNYNPSLKSRVTISVDKSKNQFSLKLSSVTAADTAVYYCARVVWYSSSSHLFDYWGQGTLVTVSS
VL: QPVLTQPPSVSAAPGQKVTISCSGSSSNIGNNYVSWYQQLPGTAPKLLIYDNNKRPSGIPDRFSGSKSGTSATLGITGLQTGDEADYYCGTWDSSLSAGKVFGGGTKLTVL
notes: full-length IgG; also called Antibody Number 147
B16: ADI-50200 (antibody, V domains shown)
VH: EVQLLESGGDLVQPGRSLRLSCAASGFNLIDYAMHWVRQVPGKGLEWVSGISWNSRSIGYADSVKGRFTISRDNAKNSLYLQMDSLKHEDTALFYCAKGAAAGPFPYFYYAMDVWGQGTTVTVSS
VL: DIQVTQSPSSLSASVGDRVTITCRASQGISNNLAWYQQKPGIFPKLLIYAASTLQSGVPSRFSGSGSGTDFILTISSLQPEDVATYYCQKYQSAPPTFGGGTKLEIK
notes: full-length IgG
B17: ADI-50537 (antibody, V domains shown)
VH: QVQLVQSGSELKKPGASVKVSCKASGYTFTSYAMNWVRQAPGQGLEWMGWINTNTGNPTYAQGFTGRFVFSLDTSVSTAYLQISSLKAEDTAVYYCARGYCSSTSCYGGLYWFDPWGQGTLVTVSS
VL: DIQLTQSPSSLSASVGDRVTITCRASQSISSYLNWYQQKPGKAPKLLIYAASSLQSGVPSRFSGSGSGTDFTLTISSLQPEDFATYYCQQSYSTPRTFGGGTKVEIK
notes: full-length IgG; also called Antibody Number 139
B18: ADI-48951 (antibody, V domains shown)
VH: EVQLLESGPGLVKPSGTLSLTCAVSGASISSNNWWSWVRQSPGKGLEWIGEIFHSGTTNYNPSLKSRVTISVDKSKNQFSLKLNSVTAADTAVYYCARDVGVAAVITGSVRWGQGTLVTVSS
VL: DIVLTQSPDSLAVSLGERAAINCKSSQSVFFSSDNKNYLAWYQQKPGQPPKLLIYWASTRESGVPDRFSGSGSGTDFTLTISSLQAEDVAVYYCQQFYTTPSTFGQGTKVEIK
notes: full-length IgG; also called Antibody Number 138
B19: ADI-42206 (antibody, V domains shown)
VH: QVQLVQSGGGLVQPGGSLRLSCAASGFTFSDHYMDWVRQAPGKGLEWVGRIRNKVNSYTTEYAASVKGRFTISRDDSKNSLYLQMNSLKTEDTAVYYCGRDRGWLDIWGQGTMVTVSS
VL: QSVLTQPASVSGSPGQSITISCTGTSSDVGGYNYVSWYQQHPGKAPKLMIYDVTNRPSGVSNRFSGSRSGNTASLTISGLQAEDEADYYCSSYTRSSTRVFGGGTKLTVL
notes: full-length IgG; also called Antibody Number 132
B20: ADI-49030 (antibody, V domains shown)
VH: QVQLVQSGGGLVQPGGSLRLSCAASGFTFSDHYMDWVRQAPGKGLEWVGRTRNKANSYTTEYAASVKGRFTISRDDSKNSLYLQMNSLKTEDTAVYYCAGVGITGTTGIDYWGQGTLVTVSS
VL: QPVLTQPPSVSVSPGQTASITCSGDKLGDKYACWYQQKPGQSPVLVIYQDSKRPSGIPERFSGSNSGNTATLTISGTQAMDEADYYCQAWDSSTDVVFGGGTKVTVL
notes: full-length IgG; also called Antibody Number 151
B21: ADI-42217 (antibody, V domains shown)
VH: EVQLVESGGGVVQPGRSLRLSCADSGFTFSYSAIHWVRQAPGKGLEWVAVISYDGSNKYYADSVKGRFTISRDNSKNTLYLQMNSLRPEDTAVYYCARHSGGYSSKDKPTEYFQHWGQGTLVTVSS
VL: QSVLTQPPSVSGAPGQRVTISCTGSSSDIGAGYDVHWYQQLPGTAPKLLIYGNTNRPSGVPDRFSGSKSGTSASLAITGLQAEDEADYYCQSYDSSLSGVVFGGGTKLTVL
notes: full-length IgG
B22: ADI-49205 (antibody, V domains shown)
VH: EVQLVESGGGVVQTGRSLRLSCAASGFTFSISGMHWVRQAPGKGLEWVALIWYDGTKKYYADSVKGRFTISRDDFKNTVYLQMNSLRADDTAVYYCARIKSDAFDLWGQGTTVTVSS
VL: QSALTQPPSASGSPGQSVTISCTGTSSDVGGFNYVSWYQQHPGRAPKLVIYEVNRRPSGVPDRFSGSKSGYTASLTVSGLQAEDEADYYCFSYAGSNNYVFGTGTKVTVL
notes: full-length IgG; also called Antibody Number 148
B23: ADI-46724 (antibody, V domains shown)
VH: QVQLQESGPGLVEPSGTLSLTCVVTGDSISSRSWWSWVRQPPGKGLEWIGEIYHSGTTTYSPSLKSRVIISLDKSENHFSLKMTSVTAADTAVYYCARVIRDLRDYYDGSGYGPDAFDIWGQGTTVTVSS
VL: QPVLTQPPSVSAAPGQKVTISCSGSSSNIGSNFVSWYQQFPGTAPKLLIYDDNKRPSGIPDRFSGSKSGTSATLGITGLQTGDEADYYCETWDSRLSVVFGGGTKLTVL
notes: full-length IgG; also called Antibody Number 133

Molecular target: T1, recombinant YFV E protein (soluble E, sE; YFV Asibi strain) (Yellow fever virus, Asibi strain, UniProt Q6DV88 286-678)
T1 construct: also called YFV E antigen; YFV E monomer
T1 sequence (Q6DV88 286-678): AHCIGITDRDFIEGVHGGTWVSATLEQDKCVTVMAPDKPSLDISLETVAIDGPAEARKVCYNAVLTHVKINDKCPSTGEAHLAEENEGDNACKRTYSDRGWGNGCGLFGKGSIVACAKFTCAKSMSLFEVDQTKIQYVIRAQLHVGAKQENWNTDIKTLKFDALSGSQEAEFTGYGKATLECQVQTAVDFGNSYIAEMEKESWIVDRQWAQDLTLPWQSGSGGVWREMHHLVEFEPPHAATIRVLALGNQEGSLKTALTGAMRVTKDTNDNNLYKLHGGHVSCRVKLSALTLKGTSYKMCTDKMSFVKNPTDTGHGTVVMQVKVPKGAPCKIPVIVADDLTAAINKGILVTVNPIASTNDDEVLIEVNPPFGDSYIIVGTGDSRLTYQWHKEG
Assay: BLI monovalent (IgG on tip)

| Binder | Kd [nM] |
| --- | --- |
| B1 | > 100 |
| B2 | > 100 |
| B3 | 4.15 |
| B4 | > 100 |
| B5 | 2.1 |
| B6 | 1.53 |
| B7 | 5.88 |
| B8 | > 100 |
| B9 | 234 |
| B10 | 1.21 |
| B11 | 26.2 |
| B12 | > 100 |
| B13 | > 100 |
| B14 | 12.7 |
| B15 | > 100 |
| B16 | > 100 |
| B17 | > 100 |
| B18 | 2.67 |
| B19 | 1.73 |
| B20 | 125 |
| B21 | 4 |
| B22 | 12.9 |
| B23 | > 100 |
